Our source for the fold reduction of complement activity (C1q ELISA) against the glycosylated Fc fragment values is patent publication US20090053246A1.

This experiment has as its target human C1q (R&D Systems) (human) (UniProt P02745). The experiment can be described thus: C1q ELISA, absorbance at 450 nm.
Chain of UniProt P02745 (P02745 23-245 limits assumed, chain 1 of 3): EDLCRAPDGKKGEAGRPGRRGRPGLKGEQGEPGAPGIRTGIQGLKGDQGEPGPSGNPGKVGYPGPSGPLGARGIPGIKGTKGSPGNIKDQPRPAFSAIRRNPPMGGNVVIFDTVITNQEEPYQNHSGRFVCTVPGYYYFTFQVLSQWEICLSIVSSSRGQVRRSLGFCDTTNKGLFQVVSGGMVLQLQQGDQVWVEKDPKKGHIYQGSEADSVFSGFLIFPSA
Chain of UniProt P02745 (P02746 28-253 limits assumed, chain 2 of 3, further chain): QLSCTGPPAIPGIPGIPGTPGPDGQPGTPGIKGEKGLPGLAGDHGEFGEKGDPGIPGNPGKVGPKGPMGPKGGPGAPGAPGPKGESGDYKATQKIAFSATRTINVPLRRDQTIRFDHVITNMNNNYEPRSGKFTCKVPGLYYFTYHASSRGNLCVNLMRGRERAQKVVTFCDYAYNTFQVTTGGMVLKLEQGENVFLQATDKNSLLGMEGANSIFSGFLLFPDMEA
Chain of UniProt P02745 (P02747 29-245 limits assumed, chain 3 of 3, further chain): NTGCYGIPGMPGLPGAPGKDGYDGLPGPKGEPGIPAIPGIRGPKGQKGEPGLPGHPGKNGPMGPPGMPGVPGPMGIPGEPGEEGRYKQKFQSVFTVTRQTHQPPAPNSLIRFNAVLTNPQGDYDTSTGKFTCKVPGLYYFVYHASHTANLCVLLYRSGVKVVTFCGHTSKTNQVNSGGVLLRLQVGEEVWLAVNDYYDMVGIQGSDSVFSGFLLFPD

As for “dCysG1Fc (recombinant aglycosylated IgG1 Fc derivative, twelve amino acid deletion at the amino terminus of the native hinge region) (from UniProt P01857 111-330)”, the fold reduction of complement activity (C1q ELISA) against the glycosylated Fc fragment turned out to be 2 times.
